The test concerns the target T1, Recombinant tissue transglutaminase (tG) (human), P21980.
T1 chain: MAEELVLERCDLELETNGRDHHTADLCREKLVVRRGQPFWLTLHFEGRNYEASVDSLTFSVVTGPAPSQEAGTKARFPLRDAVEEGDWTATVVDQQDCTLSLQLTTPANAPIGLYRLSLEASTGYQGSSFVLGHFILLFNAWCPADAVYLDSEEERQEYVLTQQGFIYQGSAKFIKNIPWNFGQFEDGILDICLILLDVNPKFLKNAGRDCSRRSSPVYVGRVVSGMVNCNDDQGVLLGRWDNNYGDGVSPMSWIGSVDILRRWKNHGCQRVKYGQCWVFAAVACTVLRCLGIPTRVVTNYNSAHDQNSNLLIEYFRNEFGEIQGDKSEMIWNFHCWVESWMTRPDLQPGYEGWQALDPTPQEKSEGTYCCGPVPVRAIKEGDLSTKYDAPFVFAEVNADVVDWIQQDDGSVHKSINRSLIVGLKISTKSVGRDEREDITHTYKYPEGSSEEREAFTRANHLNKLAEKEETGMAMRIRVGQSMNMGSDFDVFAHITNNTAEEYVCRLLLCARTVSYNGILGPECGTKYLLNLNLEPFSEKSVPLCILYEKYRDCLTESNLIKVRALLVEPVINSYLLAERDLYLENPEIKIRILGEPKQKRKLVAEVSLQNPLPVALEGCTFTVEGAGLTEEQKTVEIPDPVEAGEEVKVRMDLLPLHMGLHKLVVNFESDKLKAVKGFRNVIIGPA
Nature of the test: time-resolved SAXS; Kenics mixer (straight opening device, reaction class 3); 2 mg ml^-1 tG mixed with 4 mM CaCl2 in 20 mM HEPES pH 7.5, 100 mM NaCl, 10% glycerol, 1 mM DTT; time points 32-1500 ms; monomer to dimer. Particulars: remark: other sources report otherwise.

This passage reports stoichiometry N results from publication PMC10161774.

B1: Recombinant tissue transglutaminase (tG), P21980 1-687 (enzyme)
chain: MAEELVLERCDLELETNGRDHHTADLCREKLVVRRGQPFWLTLHFEGRNYEASVDSLTFSVVTGPAPSQEAGTKARFPLRDAVEEGDWTATVVDQQDCTLSLQLTTPANAPIGLYRLSLEASTGYQGSSFVLGHFILLFNAWCPADAVYLDSEEERQEYVLTQQGFIYQGSAKFIKNIPWNFGQFEDGILDICLILLDVNPKFLKNAGRDCSRRSSPVYVGRVVSGMVNCNDDQGVLLGRWDNNYGDGVSPMSWIGSVDILRRWKNHGCQRVKYGQCWVFAAVACTVLRCLGIPTRVVTNYNSAHDQNSNLLIEYFRNEFGEIQGDKSEMIWNFHCWVESWMTRPDLQPGYEGWQALDPTPQEKSEGTYCCGPVPVRAIKEGDLSTKYDAPFVFAEVNADVVDWIQQDDGSVHKSINRSLIVGLKISTKSVGRDEREDITHTYKYPEGSSEEREAFTRANHLNKLAEKEETGMAMRIRVGQSMNMGSDFDVFAHITNNTAEEYVCRLLLCARTVSYNGILGPECGTKYLLNLNLEPFSEKSVPLCILYEKYRDCLTESNLIKVRALLVEPVINSYLLAERDLYLENPEIKIRILGEPKQKRKLVAEVSLQNPLPVALEGCTFTVEGAGLTEEQKTVEIPDPVEAGEEVKVRMDLLPLHMGLHKLVVNFESDKLKAVKGFRNVIIGPA
For B1, the stoichiometry N was 2.

One may read the stoichiometry N as a count of units in the complex or per binding partner.
